Results from FireProtDB (doi:10.1016/j.bpc.2006.12.004).
Where “and” joins values, the source holds several entries; their conditions need not be identical. Equal values may be shown once.

Conditions: pH 8.4, Thermal, Capillary electrophoresis, whole UniProt chain shown; for unfolding free energy: 25 °C
[1] = Bos taurus, Tris Gly 25 mM 192 mM, NaCl 25 mM
[2] = Bos taurus, Tris Gly fructose 25 mM 192 mM 1.21 M, NaCl 25 mM
[3] = Bos taurus, Tris Gly sucrose 25 mM 192 mM 0.15 M, NaCl 25 mM
[4] = Bos taurus, Tris Gly sucrose 25 mM 192 mM 0.31 M, NaCl 25 mM
[5] = Bos taurus, Tris Gly sucrose 25 mM 192 mM 0.47 M, NaCl 25 mM
[6] = Bos taurus, Tris Gly sucrose 25 mM 192 mM 0.63 M, NaCl 25 mM
[7] = Bos taurus, Tris Gly sucrose 25 mM 192 mM 0.96 M, NaCl 25 mM
[8] = Aspergillus oryzae (strain ATCC 42149 / RIB 40), Tris Gly 25 mM 192 mM, NaCl 30 mM
[9] = Aspergillus oryzae (strain ATCC 42149 / RIB 40), Tris Gly fructose 25 mM 192 mM 0.57 M, NaCl 30 mM
[10] = Aspergillus oryzae (strain ATCC 42149 / RIB 40), Tris Gly fructose 25 mM 192 mM 1.21 M, NaCl 30 mM
[11] = Aspergillus oryzae (strain ATCC 42149 / RIB 40), Tris Gly fructose 25 mM 192 mM 1.52 M, NaCl 30 mM
[12] = Aspergillus oryzae (strain ATCC 42149 / RIB 40), Tris Gly sucrose 25 mM 192 mM 0.15 M, NaCl 30 mM
[13] = Aspergillus oryzae (strain ATCC 42149 / RIB 40), Tris Gly sucrose 25 mM 192 mM 0.31 M, NaCl 30 mM
[14] = Aspergillus oryzae (strain ATCC 42149 / RIB 40), Tris Gly sucrose 25 mM 192 mM 0.47 M, NaCl 30 mM
[15] = Aspergillus oryzae (strain ATCC 42149 / RIB 40), Tris Gly sucrose 25 mM 192 mM 0.63 M, NaCl 30 mM
[16] = Aspergillus oryzae (strain ATCC 42149 / RIB 40), Tris Gly sucrose 25 mM 192 mM 0.80 M, NaCl 30 mM

B1: Alpha-lactalbumin wild type, P00711 (protein)
chain: MMSFVSLLLVGILFHATQAEQLTKCEVFRELKDLKGYGGVSLPEWVCTTFHTSGYDTQAIVQNNDSTEYGLFQINNKIWCKDDQNPHSSNICNISCDKFLDDDLTDDIMCVKKILDKVGINYWLAHKALCSEKLDQWLCEKL
B1 showed an unfolding free energy [1] of 3.3 kcal/mol, an unfolding free energy (Bos taurus, Tris Gly fructose 25 mM 192 mM 0.57 M, NaCl 25 mM) of 4.5 kcal/mol and an unfolding free energy [2] of 5.6 kcal/mol. It also gave an unfolding free energy [3] of 3.8 kcal/mol, an unfolding free energy [4] of 4.6 kcal/mol and an unfolding free energy [5] of 5.3 kcal/mol. The unfolding free energy [6] was 5.7 kcal/mol, the unfolding free energy [7] was 7 kcal/mol and the Tm [1] was 56.1 °C and 56 °C. For the same protein, the “heat capacity change of unfolding” value [1] was 2.1 kcal/mol/K, the “unfolding enthalpy (van 't Hoff)” value [1] was 69 kcal/mol and the Tm [2] was 61.6 °C. The Tm (Bos taurus, Tris Gly fructose 25 mM 192 mM 1.83 M, NaCl 25 mM) was 63.2 °C, the Tm [3] was 56.3 °C and the Tm [4] was 57.5 °C. It also gave a Tm [5] of 59 °C, a Tm [6] of 60.5 °C and a Tm [7] of 62.4 °C.

B2: Guanyl-specific ribonuclease T1 wild type, P00651 (protein)
chain: MMYSKLLTLTTLLLPTALALPSLVERACDYTCGSNCYSSSDVSTAQAAGYQLHEDGETVGSNSYPHKYNNYEGFDFSVSSPYYEWPILSSGDVYSGGSPGADRVVFNENNQLAGVITHTGASGNNFVECT
B2 gave an unfolding free energy [8] of 8.2 kcal/mol, an unfolding free energy (Aspergillus oryzae (strain ATCC 42149 / RIB 40), Tris Gly fructose 25 mM 192 mM 0.29 M, NaCl 30 mM) of 9.1 kcal/mol and an unfolding free energy [9] of 9.5 kcal/mol. For the same protein, the unfolding free energy [10] was 10.5 kcal/mol, the unfolding free energy [11] was 11.2 kcal/mol and the unfolding free energy [12] was 9.1 kcal/mol. It also gave an unfolding free energy [13] of 9.5 kcal/mol, an unfolding free energy [14] of 10.2 kcal/mol and an unfolding free energy [15] of 10.6 kcal/mol. The unfolding free energy [16] was 11.1 kcal/mol, the Tm [8] was 62.6 °C and 62.5 °C and the “heat capacity change of unfolding” value [8] was 1.3 kcal/mol/K. For the same protein, the “unfolding enthalpy (van 't Hoff)” value [8] was 98 kcal/mol, the Tm [9] was 64.5 °C and the Tm (Aspergillus oryzae (strain ATCC 42149 / RIB 40), Tris Gly fructose 25 mM 192 mM 0.89 M, NaCl 30 mM) was 66 °C. The Tm [10] was 66.5 °C, the Tm [11] was 68 °C and the Tm [12] was 63.6 °C. The Tm [13] was 64.7 °C, the Tm [14] was 65.9 °C and the Tm [15] was 66.5 °C. For the same protein, the Tm [16] was 67.1 °C.
